Measurements taken from patent publication US8679766B2, “E-cadherin as a biomarker of gastroesophageal reflux disease” (The University of North Carolina at Chapel Hill, priority 2009, dated 2014).

Tested on: rabbit EE
Assay: Barrier breaker search: rabbit EE in U-chambers, monitoring RT (marker of PCP) and Isc
Format: cell-based
Details: at pH 2
Source text: Agents that increase paracellular permeability (PCP) in EE are potential contributors to GERD by enabling diffusion of luminal acid into the intercellular space. Therefore, substances were sought within the refluxate, meals and inflammation that could ‘break the barrier’. This was done by exposing rabbit EE in U-chambers to candidate inflammatory agents while both monitoring RT, as a marker of PCP, and Isc (short circuit current), as a marker of active transport. The inflammatory agents were selected based on presence in EE or on reports that they can break the barrier in other epithelia (47-60).

B1: pepsin: barrier breaker identified at pH 2 (protein, UniProt P0DJD8 63-388, looked up)
Pepsin A-3: VDEQPLENYLDMEYFGTIGIGTPAQDFTVVFDTGSSNLWVPSVYCSSLACTNHNRFNPEDSSTYQSTSETVSITYGTGSMTGILGYDTVQVGGISDTNQIFGLSETEPGSFLYYAPFDGILGLAYPSISSSGATPVFDNIWNQGLVSQDLFSVYLSADDQSGSVVIFGGIDSSYYTGSLNWVPVTVEGYWQITVDSITMNGEAIACAEGCQAIVDTGTSLLTGPTSPIANIQSDIGASENSDGDMVVSCSAISSLPDIVFTINGVQYPVPPSAYILQSEGSCISGFQGMNLPTESGELWILGDVFIRQYFTVFDRANNQVGLAPVA
  breaks the barrier (RT as marker of PCP): barrier breakers
